{"source": "patent US10829756B2", "about": "“Discovery of enzymes from the alpha-keto acid decarboxylase family” (priority 2015, dated 2020)", "experiment_in_all_cases": "Steady-state kinetics of 2-ketoacid decarboxylase (ADH/NADH coupled)", "assay_type_in_all_cases": "biochemical", "details_in_all_cases": "other: pH 7.5, 21° C.", "key": {"[1]": {"system": "CC(C)C(=O)C(=O)O", "procedure": "(§1) For the native KIVD and KIVD_VLV mutant, 2 ml overnight cultures of XL1B cells were transformed with pQE9 containing N-terminal his-tagged KIVD enzymes and grown in Terrific Broth (BP biomedical, Cat#3046-042) with 50 μg/mL of carbenicillin. (Fisher scientific, Cat# BP2648-5) For the GEOs, 2 ml overnight cultures of BLR cells were transformed with pet29b+ plasmid containing N-terminal his-tagged GEOs, and grown in Terrific Broth with 50 μg/mL of kanamycin. (Fisher scientific, Cat# BP906-5) These cultures were diluted 1:1000 in 500 mL of Terrific Broth with 1 mM MgSO4, 1% glucose, and 50ug/mL of corresponding antibiotics, then grown at 37° C. for 24 hours. Cultures were pelleted down at 4700 rpm for 10 mins and resuspended in auto-induction media (LB broth, 1 mM MgSO4, 0.1 mM TPP, 1×NPS, and 1×5052) for induction at 18° C. for 34 hours. At the end of induction, cells were centrifuged (4700 rpm, 4° C., 20 minutes), supernatant was removed, and cells were resuspended in 40 mL lysis buffer (100 mM Hepes pH 7.5, 100 mM NaCl, 10% glycerol, 0.1 mM TPP, 1 mM MgSO4, 10 mM Imidazole, 1 mM TCEP) and 1 mM PMSF) and sonicated for 2 minutes. Lysed cells were centrifuged at 4700 rpm at 4° C. for 60 mins to remove cell debris. Supernatant was loaded on gravity flow column with 700 μl of cobalt slurry (Fisher scientific, CAT# PI-90091) washed with 10 ml of wash buffer (100 mM Hepes pH 7.5, 100 mM NaCl, 10% glycerol, 0.1 mM TPP, 1 mM MgSO4, 10 mM Imidazole, and 1 mM TCEP). Cobalt bead bed was washed with 15 ml of wash buffer 5 times and proteins were eluted with 1000 μl of elution buffer (100 mM Hepes pH 7.5, 100 mM NaCl, 10% glycerol, 0.1 mM TPP, 1 mM MgSO4, 200 mM Imidazole, and 1 mM TCEP). Protein samples were immediately buffer exchanged with spin concentrators (Satorius, CAT# VS0112) into storage buffer (100 mM Hepes pH 7.5, 100 mM NaCl, 10% glycerol, 0.1 mM TPP, 1 mM MgSO4, and 1 mM TCEP) and stored at 4° C. until kinetics characterization. Protein concentrations were determined using a Synergy H1 spectrophotometer (Biotek) by measuring absorbance at 280 nm using their calculated extinction coefficients with ExPASy ProtParam Tool.^33 All other buffers and salts were purchased from Fisher Scientific unless otherwise specified.\n(§2) The kcat and KM values of selective KIVD mutants were measured for the substrates: C3, C5, isoC5, and C8. All substrates were dissolved in MilliQ H2O and pH was adjusted to 7.5 as necessary. Activity was measured at 0.005 mM to 10 mM substrates. The assay was performed in a 96-well half-area plate. Each reaction contains a final concentration of 0.5 mM NADH, 1 mM DTT, 0.1 mM TPP, 1 mM MgSO4, reaction buffer (100 mM Hepes, 100 mM NaCl, 10% glycerol, pH 7.5) and ADH (Sigma Aldrich, A7011, 10 U/ml for C3, C5 and C8 reactions, 500 U/ml for isoC5 reactions). A wide range of ketoacid decarboxylase concentrations, 4.5 nM-15 μM, were used according to the activity of each enzyme toward different substrates in order to perform steady state kinetics measurement over a period of an hour. Absorbance readings were taken every 1-minute at OD340 at 21° C. for 60 minutes using the Synergy H1. Kinetic parameters (kcat and KM) were determined by fitting initial velocity versus substrate concentration data to the Michaelis-Menten equation."}, "[2]": {"system": "CCCCCCC(=O)C(=O)O", "procedure": "as §1, §2"}, "[3]": {"system": "CC(=O)C(=O)O", "procedure": "as §1, §2"}, "[4]": {"system": "CCCC(=O)C(=O)O", "procedure": "as §1, §2"}}, "data": [{"substance": "1OVM (1OVM_P23234), ketoacid decarboxylase, SEQ ID NO: 26 (Enterobacter cloacae)", "values": [{"measurement": "Km", "setting": "[1]", "result": "6.1 ± 0.6", "unit": "mM"}, {"measurement": "kcat", "setting": "[1]", "result": "7.8 ± 0.4", "unit": "s⁻¹"}, {"measurement": "kcat/Km", "setting": "[1]", "result": "1300 ± 130", "unit": "M⁻¹ s⁻¹"}, {"measurement": "Km", "setting": "[2]", "result": "0.021 ± 0.001", "unit": "mM"}, {"measurement": "kcat", "setting": "[2]", "result": "1.7 ± 0.1", "unit": "s⁻¹"}, {"measurement": "kcat/Km", "setting": "[2]", "result": "80000 ± 4300", "unit": "M⁻¹ s⁻¹"}, {"measurement": "Km", "setting": "[3]", "result": "7.5 ± 0.1", "unit": "mM"}, {"measurement": "kcat", "setting": "[3]", "result": "0.2 ± 0.01", "unit": "s⁻¹"}, {"measurement": "kcat/Km", "setting": "[3]", "result": "32 ± 0.5", "unit": "M⁻¹ s⁻¹"}, {"measurement": "Km", "setting": "[4]", "result": "0.5 ± 0.1", "unit": "mM"}, {"measurement": "kcat", "setting": "[4]", "result": "1 ± 0.1", "unit": "s⁻¹"}, {"measurement": "kcat/Km", "setting": "[4]", "result": "2100 ± 420", "unit": "M⁻¹ s⁻¹"}]}]}
